The results in this text go back to publication PMC9922763 (Frontiers in Molecular Biosciences, 2023).

This data set concerns the molecule itself. The experiment in a line: split reporter (BiFC, NanoBiT); BiFC with split Venus in transfected HEK293 cells; percent of fluorescent cells by flow cytometry (Accuri C6 plus) 24 h after transfection.

Where no end group is shown, it is not given here.

B1: aSyn (61–95) BiFC fusion: aSyn residues 61–95, 17-residue linker, N-terminal or C-terminal fragment of Venus (domain or fragment)
chain: not shown
notes: alpha-synuclein (aSyn), residues 61-95, the non-amyloid-B component (NAC) region, 35 amino acids; 17-amino acid linker between the protein of interest and the Venus fragment; One molecule stands for both constructs, aSVN (Venus 1-173) and aSVC (Venus 155-239); the label in each row tells which was used; A start methionine and residues coded by the restriction sites are not described; also called …
For B1, the “percent of cells with a fluorescent BiFC signal” value was determined as 29.3%.

B2: IAPP BiFC fusion: human IAPP, 17-residue linker, N-terminal or C-terminal fragment of Venus (peptide)
chain: KCNTATCATQRLANFLVHSSNNFGAILSSTNVGSNTYRPACKIPNDLKQKVMNH
modifications: cysteine pairing not given here; also: fused to N- or C-terminal Venus fragment, not in chain
notes: human islet amyloid polypeptide (IAPP), the 37-amino acid long peptide cut from proIAPP; 17-amino acid linker between the protein of interest and the Venus fragment; One molecule stands for both constructs, IVN (Venus 1-173) and IVC (Venus 155-239); the label in each row tells which was used; a start methionine is not described; also called IVN; IVC; source: HEK293, transfected (pcDNA3.1 zeo+), …
Consider B2, for which the “percent of cells with a fluorescent BiFC signal” value amounted to 19.7%.
